Measurements from patent US20260242735A1 (UNIVERSIT T BASEL, published 2026).

Columns and labels:
[1] = biological target: T1, human wild-type CD33 (human, UniProt P20138 18-364); assay: flow cytometry, IgG at 0.25 ug/ml on HEK293-T cells expressing CD33 against vector alone
T1 construct: also called SIGLEC3; P67
Experimental: Binding of the antibodies to the transfected cells and the optimal assay conditions were evaluated in 384-well format. Detection of cellular expression was measured via high-throughput flow cytometry. Serial dilutions of each antibody were tested for immunoreactivity against cells expressing CD33 or vector alone. The optimal screening concentration for each antibody was determined based on the raw signal values and signal-to-background calculations. Each point represents the mean of four replicates.

[2] = biological target: human CD33 P132F (human, UniProt P20138 18-364); assay: flow cytometry, HEK293-T, IgG;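 note: CD33 point mutants transiently expressed, antibody binding measured by fluorescence in duplicate, background subtracted and scaled to binding on wild-type CD33 as 100%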
Sequence of human CD33 P132F (P20138 18-364 P132F limits assumed): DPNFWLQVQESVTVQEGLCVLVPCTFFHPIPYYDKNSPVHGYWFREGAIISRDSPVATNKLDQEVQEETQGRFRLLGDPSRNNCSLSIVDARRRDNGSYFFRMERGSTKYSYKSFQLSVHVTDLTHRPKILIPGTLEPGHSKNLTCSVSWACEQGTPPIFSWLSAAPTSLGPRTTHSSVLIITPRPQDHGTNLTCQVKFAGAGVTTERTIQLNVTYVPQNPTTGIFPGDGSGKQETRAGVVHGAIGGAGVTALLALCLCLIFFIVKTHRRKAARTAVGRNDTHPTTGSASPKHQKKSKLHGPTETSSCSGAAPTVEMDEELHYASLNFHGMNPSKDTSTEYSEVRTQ
Experimental: (§1) An alanine scan on human CD33 was performed to the determine the residues on CD33 that are involved in binding to the antibodies investigated. […] Briefly, a mutation library of CD33 was created by high-throughput, site-directed mutagenesis. Each residue was individually mutated to alanine, with alanine codons mutated to serine. The mutant library was arrayed in 384-well microplates and transiently transfected into HEK293-T. Following transfection, cells were incubated with the indicated antibodies (IgG or Fab) at concentrations pre-determined using an independent immunofluorescence titration curve on wild type CD33. […] Binding of each antibody to each mutant clone was determined in duplicates. For each point, background fluorescence was subtracted from the raw data, which were then normalized to antibody reactivity with wild type CD33.
(§2) Antibodies were screened for binding to the human CD33 variants in IgG format. […] For each mutation, background fluorescence was subtracted from the raw data, which were then normalized to antibody reactivity with wild-type CD33.

[3] = biological target: human CD33 S131Y (human, UniProt P20138 18-364); assay: flow cytometry, HEK293-T, IgG;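 note: CD33 point mutants transiently expressed, antibody binding measured by fluorescence in duplicate, background subtracted and scaled to binding on wild-type CD33 as 100%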
Sequence of human CD33 S131Y (P20138 18-364 S131Y limits assumed): as the sequence (P20138 18-364 P132F limits assumed) above, with S114Y, F115P counted along it
Experimental: as §1, §2

[4] = biological target: human CD33 S131N (human, UniProt P20138 18-364); assay: flow cytometry, HEK293-T, IgG;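 note: CD33 point mutants transiently expressed, antibody binding measured by fluorescence in duplicate, background subtracted and scaled to binding on wild-type CD33 as 100%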
Sequence of human CD33 S131N (P20138 18-364 S131N limits assumed): as the sequence (P20138 18-364 P132F limits assumed) above, with S114N, F115P counted along it
Experimental: as §1, §2

[5] = biological target: human CD33 P132S (human, UniProt P20138 18-364); assay: flow cytometry, HEK293-T, IgG;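 note: CD33 point mutants transiently expressed, antibody binding measured by fluorescence in duplicate, background subtracted and scaled to binding on wild-type CD33 as 100%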
Sequence of human CD33 P132S (P20138 18-364 P132S limits assumed): as the sequence (P20138 18-364 P132F limits assumed) above, with F115S counted along it
Experimental: as §1, §2

[6] = biological target: human CD33 S131M (human, UniProt P20138 18-364); assay: flow cytometry, HEK293-T, IgG
Sequence of human CD33 S131M (P20138 18-364 S131M limits assumed): as the sequence (P20138 18-364 P132F limits assumed) above, with S114M, F115P counted along it
Experimental: as §1, §2

[7] = biological target: human CD33 L134T (human, UniProt P20138 18-364); assay: flow cytometry, HEK293-T, IgG
Sequence of human CD33 L134T (P20138 18-364 L134T limits assumed): as the sequence (P20138 18-364 P132F limits assumed) above, with F115P, L117T counted along it
Experimental: as §1, §2

[8] = biological target: human CD33 L134R (human, UniProt P20138 18-364); assay: flow cytometry, HEK293-T, IgG
Sequence of human CD33 L134R (P20138 18-364 L134R limits assumed): as the sequence (P20138 18-364 P132F limits assumed) above, with F115P, L117R counted along it
Experimental: as §1, §2

[9] = biological target: human CD33 P132H (human, UniProt P20138 18-364); assay: flow cytometry, HEK293-T, IgG
Sequence of human CD33 P132H (P20138 18-364 P132H limits assumed): as the sequence (P20138 18-364 P132F limits assumed) above, with F115H counted along it
Experimental: as §1, §2

[10] = biological target: human CD33 S131K (human, UniProt P20138 18-364); assay: flow cytometry, HEK293-T, IgG
Sequence of human CD33 S131K (P20138 18-364 S131K limits assumed): as the sequence (P20138 18-364 P132F limits assumed) above, with S114K, F115P counted along it
Experimental: as §1, §2

[11] = biological target: human CD33 P132T (human, UniProt P20138 18-364); assay: flow cytometry, HEK293-T, IgG
Sequence of human CD33 P132T (P20138 18-364 P132T limits assumed): as the sequence (P20138 18-364 P132F limits assumed) above, with F115T counted along it
Experimental: as §1, §2

[12] = biological target: human CD33 L134F (human, UniProt P20138 18-364); assay: flow cytometry, HEK293-T, IgG
Sequence of human CD33 L134F (P20138 18-364 L134F limits assumed): as the sequence (P20138 18-364 P132F limits assumed) above, with F115P, L117F counted along it
Experimental: as §1, §2

[13] = biological target: human CD33 S131Q (human, UniProt P20138 18-364); assay: flow cytometry, HEK293-T, IgG
Sequence of human CD33 S131Q (P20138 18-364 S131Q limits assumed): as the sequence (P20138 18-364 P132F limits assumed) above, with S114Q, F115P counted along it
Experimental: as §1, §2

[14] = biological target: human CD33 L134Q (human, UniProt P20138 18-364); assay: flow cytometry, HEK293-T, IgG
Sequence of human CD33 L134Q (P20138 18-364 L134Q limits assumed): as the sequence (P20138 18-364 P132F limits assumed) above, with F115P, L117Q counted along it
Experimental: as §1, §2

[15] = biological target: human CD33 S131D (human, UniProt P20138 18-364); assay: flow cytometry, HEK293-T, IgG
Sequence of human CD33 S131D (P20138 18-364 S131D limits assumed): as the sequence (P20138 18-364 P132F limits assumed) above, with S114D, F115P counted along it
Experimental: as §1, §2

[16] = biological target: human CD33 P132V (human, UniProt P20138 18-364); assay: flow cytometry, HEK293-T, IgG
Sequence of human CD33 P132V (P20138 18-364 P132V limits assumed): as the sequence (P20138 18-364 P132F limits assumed) above, with F115V counted along it
Experimental: as §1, §2

[17] = biological target: human CD33 P132Y (human, UniProt P20138 18-364); assay: flow cytometry, HEK293-T, IgG
Sequence of human CD33 P132Y (P20138 18-364 P132Y limits assumed): as the sequence (P20138 18-364 P132F limits assumed) above, with F115Y counted along it
Experimental: as §1, §2

[18] = biological target: human CD33 P132D (human, UniProt P20138 18-364); assay: flow cytometry, HEK293-T, IgG
Sequence of human CD33 P132D (P20138 18-364 P132D limits assumed): as the sequence (P20138 18-364 P132F limits assumed) above, with F115D counted along it
Experimental: as §1, §2

[19] = biological target: human CD33 S131F (human, UniProt P20138 18-364); assay: flow cytometry, HEK293-T, IgG
Sequence of human CD33 S131F (P20138 18-364 S131F limits assumed): as the sequence (P20138 18-364 P132F limits assumed) above, with S114F, F115P counted along it
Experimental: as §1, §2

[20] = biological target: human CD33 S131T (human, UniProt P20138 18-364); assay: flow cytometry, HEK293-T, IgG
Sequence of human CD33 S131T (P20138 18-364 S131T limits assumed): as the sequence (P20138 18-364 P132F limits assumed) above, with S114T, F115P counted along it
Experimental: as §1, §2

[21] = biological target: human CD33 P132L (human, UniProt P20138 18-364); assay: flow cytometry, HEK293-T, IgG
Sequence of human CD33 P132L (P20138 18-364 P132L limits assumed): as the sequence (P20138 18-364 P132F limits assumed) above, with F115L counted along it
Experimental: as §1, §2

[22] = biological target: human CD33 L134M (human, UniProt P20138 18-364); assay: flow cytometry, HEK293-T, IgG
Sequence of human CD33 L134M (P20138 18-364 L134M limits assumed): as the sequence (P20138 18-364 P132F limits assumed) above, with F115P, L117M counted along it
Experimental: as §1, §2

[23] = biological target: human CD33 S131W (human, UniProt P20138 18-364); assay: flow cytometry, HEK293-T, IgG
Sequence of human CD33 S131W (P20138 18-364 S131W limits assumed): as the sequence (P20138 18-364 P132F limits assumed) above, with S114W, F115P counted along it
Experimental: as §1, §2

[24] = biological target: human CD33 S131H (human, UniProt P20138 18-364); assay: flow cytometry, HEK293-T, IgG
Sequence of human CD33 S131H (P20138 18-364 S131H limits assumed): as the sequence (P20138 18-364 P132F limits assumed) above, with S114H, F115P counted along it
Experimental: as §1, §2

[25] = biological target: human CD33 P132N (human, UniProt P20138 18-364); assay: flow cytometry, HEK293-T, IgG
Sequence of human CD33 P132N (P20138 18-364 P132N limits assumed): as the sequence (P20138 18-364 P132F limits assumed) above, with F115N counted along it
Experimental: as §1, §2

[26] = biological target: human CD33 P132K (human, UniProt P20138 18-364); assay: flow cytometry, HEK293-T, IgG
Sequence of human CD33 P132K (P20138 18-364 P132K limits assumed): as the sequence (P20138 18-364 P132F limits assumed) above, with F115K counted along it
Experimental: as §1, §2

[27] = biological target: human CD33 P132Q (human, UniProt P20138 18-364); assay: flow cytometry, HEK293-T, IgG
Sequence of human CD33 P132Q (P20138 18-364 P132Q limits assumed): as the sequence (P20138 18-364 P132F limits assumed) above, with F115Q counted along it
Experimental: as §1, §2

[28] = biological target: human CD33 L134I (human, UniProt P20138 18-364); assay: flow cytometry, HEK293-T, IgG
Sequence of human CD33 L134I (P20138 18-364 L134I limits assumed): as the sequence (P20138 18-364 P132F limits assumed) above, with F115P, L117I counted along it
Experimental: as §1, §2

[29] = biological target: human CD33 S131I (human, UniProt P20138 18-364); assay: flow cytometry, HEK293-T, IgG
Sequence of human CD33 S131I (P20138 18-364 S131I limits assumed): as the sequence (P20138 18-364 P132F limits assumed) above, with S114I, F115P counted along it
Experimental: as §1, §2

T1 sequence (P20138 18-364 limits assumed): as the sequence (P20138 18-364 P132F limits assumed) above, with F115P counted along it

B1: Refmab #1 (antibody, human IgG1, V domains shown)
VH: EVQLVQSGAEVKKPGSSVKVSCKASGYTITDSNIHWVRQAPGQSLEWIGYIYPYNGGTDYNQKFKNRATLTVDNPTNTAYMELSSLRSEDTAFYYCVNGNPWLAYWGQGTLVTVSS
VL: DIQLTQSPSTLSASVGDRVTITCRASESLDNYGIRFLTWFQQKPGKAPKLLMYAASNQGSGVPSRFSGSGSGTEFTLTISSLQPDDFATYYCQQTKEVPWSFGQGTKVEVK
notes: Full-length MAb format, human IgG1; also called hP67.6
Signal:Background [1]: 44 signal:background ratio

B2: Refmab #4 (antibody, human IgG1, V domains shown)
VH: QVQLVQSGAEVKKPGESVKVSCKASGYTFTNYGMNWVKQAPGQGLEWMGWINTYTGEPTYADKFQGRVTMTTDTSTSTAYMEIRNLGGDDTAVYYCARWSWSDGYYVYFDYWGQGTSVTVSS
VL: DIVMTQSPDSLTVSLGERTTINCKSSQSVLDSSTNKNSLAWYQQKPGQPPKLLLSWASTRESGIPDRFSGSGSGTDFTLTIDSPQPEDSATYYCQQSAHFPITFGQGTRLEIK
notes: Full-length MAb format, human IgG1 Fc silent (PG-LALA)
Signal:Background [1]: 38 signal:background ratio

B3: Refmab #1 (antibody, human IgG1, V domains shown)
VH: EVQLVQSGAEVKKPGSSVKVSCKASGYTITDSNIHWVRQAPGQSLEWIGYIYPYNGGTDYNQKFKNRATLTVDNPTNTAYMELSSLRSEDTAFYYCVNGNPWLAYWGQGTLVTVSS
VL: DIQLTQSPSTLSASVGDRVTITCRASESLDNYGIRFLTWFQQKPGKAPKLLMYAASNQGSGVPSRFSGSGSGTEFTLTISSLQPDDFATYYCQQTKEVPWSFGQGTKVEVK
notes: tested in IgG format; also called hP67.6
Mean % WT Binding [2]: 91.3 % WT binding | Mean % WT Binding [3]: 97.7 % WT binding | Mean % WT Binding [4]: 94.6 % WT binding | Mean % WT Binding [5]: 92.9 % WT binding | Mean % WT Binding [6]: 105 % WT binding | Mean % WT Binding [7]: 91.6 % WT binding | Mean % WT Binding [8]: 3.1 % WT binding | Mean % WT Binding [9]: 84.9 % WT binding | Mean % WT Binding [10]: 102 % WT binding | Mean % WT Binding [11]: 98.9 % WT binding | Mean % WT Binding [12]: 92.5 % WT binding | Mean % WT Binding [13]: 101 % WT binding | Mean % WT Binding [14]: 83 % WT binding | Mean % WT Binding [15]: 91.9 % WT binding | Mean % WT Binding [16]: 105 % WT binding | Mean % WT Binding [17]: 93.5 % WT binding | Mean % WT Binding [18]: 89.9 % WT binding | Mean % WT Binding [19]: 95.6 % WT binding | Mean % WT Binding [20]: 97.2 % WT binding | Mean % WT Binding [21]: 94.6 % WT binding | Mean % WT Binding [22]: 81.2 % WT binding | Mean % WT Binding [23]: 97.6 % WT binding | Mean % WT Binding [24]: 96.4 % WT binding | Mean % WT Binding [25]: 91.4 % WT binding | Mean % WT Binding [26]: 99.6 % WT binding | Mean % WT Binding [27]: 91.7 % WT binding | Mean % WT Binding [28]: 106 % WT binding | Mean % WT Binding [29]: 96.6 % WT binding

B4: Refmab #2 (antibody, human IgG1, V domains shown)
VH: QVQLVQSGAEVKKPGSSVKVSCKASGGTFSDYAISWVRQAPGQGLEWMGRIIPILGVADYAQKFQGRVTITADKSTRTAYMELSSLRSEDTAVYYCARNWADAFDIWGQGTMVTVSS
VL: DIQLTQSPSSLSASVGDRVTITCRASQGISSVLAWYQQKPGKAPKLLIYDASSLESGVPSRFSGSGSGTDFTLTISSLQPEDFATYYCQQFDSSITFGQGTKLEIK
notes: tested in IgG format
Mean % WT Binding [2]: 65.1 % WT binding | Mean % WT Binding [3]: 98.5 % WT binding | Mean % WT Binding [4]: 126 % WT binding | Mean % WT Binding [5]: 110 % WT binding | Mean % WT Binding [6]: 108 % WT binding | Mean % WT Binding [7]: 99.2 % WT binding | Mean % WT Binding [8]: 2.5 % WT binding | Mean % WT Binding [9]: 101 % WT binding | Mean % WT Binding [10]: 91.2 % WT binding | Mean % WT Binding [11]: 103 % WT binding | Mean % WT Binding [12]: 106 % WT binding | Mean % WT Binding [13]: 110 % WT binding | Mean % WT Binding [14]: 77.4 % WT binding | Mean % WT Binding [15]: 101 % WT binding | Mean % WT Binding [16]: 102 % WT binding | Mean % WT Binding [17]: 65 % WT binding | Mean % WT Binding [18]: 73.6 % WT binding | Mean % WT Binding [19]: 111 % WT binding | Mean % WT Binding [20]: 111 % WT binding | Mean % WT Binding [21]: 116 % WT binding | Mean % WT Binding [22]: 105 % WT binding | Mean % WT Binding [23]: 92.4 % WT binding | Mean % WT Binding [24]: 112 % WT binding | Mean % WT Binding [25]: 100 % WT binding | Mean % WT Binding [26]: 119 % WT binding | Mean % WT Binding [27]: 83.4 % WT binding | Mean % WT Binding [28]: 105 % WT binding | Mean % WT Binding [29]: 110 % WT binding

B5: Refmab #3 (antibody, human IgG1, V domains shown)
VH: QVQLVQSGAEVKKPGSSVKVSCKASGYTFTDYNMHWVRQAPGQGLEWIGYIYPYNGGTGYNQKFKSKATITADESTNTAYMELSSLRSEDTAVYYCARGRPAMDYWGQGTLVTVSS
VL: DIQMTQSPSSLSASVGDRVTITCRASESVDNYGISFMNWFQQKPGKAPKLLIYAASNQGSGVPSRFSGSGSGTDFTLTISSLQPDDFATYYCQQSKEVPWTFGQGTKVEIK
notes: tested in IgG format
Mean % WT Binding [2]: 79.4 % WT binding | Mean % WT Binding [3]: 97.4 % WT binding | Mean % WT Binding [4]: 118 % WT binding | Mean % WT Binding [5]: 95.8 % WT binding | Mean % WT Binding [6]: 91.9 % WT binding | Mean % WT Binding [7]: 101 % WT binding | Mean % WT Binding [8]: 1 % WT binding | Mean % WT Binding [9]: 87.8 % WT binding | Mean % WT Binding [10]: 87.7 % WT binding | Mean % WT Binding [11]: 106 % WT binding | Mean % WT Binding [12]: 104 % WT binding | Mean % WT Binding [13]: 93.9 % WT binding | Mean % WT Binding [14]: 87.7 % WT binding | Mean % WT Binding [15]: 93.9 % WT binding | Mean % WT Binding [16]: 86.6 % WT binding | Mean % WT Binding [17]: 85.2 % WT binding | Mean % WT Binding [18]: 92.7 % WT binding | Mean % WT Binding [19]: 103 % WT binding | Mean % WT Binding [20]: 116 % WT binding | Mean % WT Binding [21]: 94.4 % WT binding | Mean % WT Binding [22]: 106 % WT binding | Mean % WT Binding [23]: 91.9 % WT binding | Mean % WT Binding [24]: 100 % WT binding | Mean % WT Binding [25]: 94.5 % WT binding | Mean % WT Binding [26]: 65 % WT binding | Mean % WT Binding [27]: 80.1 % WT binding | Mean % WT Binding [28]: 108 % WT binding | Mean % WT Binding [29]: 95.7 % WT binding

B6: Refmab #4 (antibody, human IgG1, V domains shown)
VH: QVQLVQSGAEVKKPGESVKVSCKASGYTFTNYGMNWVKQAPGQGLEWMGWINTYTGEPTYADKFQGRVTMTTDTSTSTAYMEIRNLGGDDTAVYYCARWSWSDGYYVYFDYWGQGTSVTVSS
VL: DIVMTQSPDSLTVSLGERTTINCKSSQSVLDSSTNKNSLAWYQQKPGQPPKLLLSWASTRESGIPDRFSGSGSGTDFTLTIDSPQPEDSATYYCQQSAHFPITFGQGTRLEIK
notes: tested in IgG format
Mean % WT Binding [2]: 71.3 % WT binding | Mean % WT Binding [3]: 85.7 % WT binding | Mean % WT Binding [4]: 105 % WT binding | Mean % WT Binding [5]: 102 % WT binding | Mean % WT Binding [6]: 97.6 % WT binding | Mean % WT Binding [7]: 90.3 % WT binding | Mean % WT Binding [8]: 2.4 % WT binding | Mean % WT Binding [9]: 92.7 % WT binding | Mean % WT Binding [10]: 100 % WT binding | Mean % WT Binding [11]: 99.8 % WT binding | Mean % WT Binding [12]: 90.6 % WT binding | Mean % WT Binding [13]: 97.3 % WT binding | Mean % WT Binding [14]: 86.8 % WT binding | Mean % WT Binding [15]: 97.5 % WT binding | Mean % WT Binding [16]: 94.7 % WT binding | Mean % WT Binding [17]: 78.6 % WT binding | Mean % WT Binding [18]: 99.6 % WT binding | Mean % WT Binding [19]: 91.8 % WT binding | Mean % WT Binding [20]: 102 % WT binding | Mean % WT Binding [21]: 96.7 % WT binding | Mean % WT Binding [22]: 99 % WT binding | Mean % WT Binding [23]: 87.5 % WT binding | Mean % WT Binding [24]: 103 % WT binding | Mean % WT Binding [25]: 100 % WT binding | Mean % WT Binding [26]: 102 % WT binding | Mean % WT Binding [27]: 86.9 % WT binding | Mean % WT Binding [28]: 94.4 % WT binding | Mean % WT Binding [29]: 99.6 % WT binding
